Experimental data published in patent publication US20050186649 (published 2005).
Positions count from the first letter of the chain named.

B1: human plasmin (protein)
chain: KVYLSECKTGNGKNYRGTMSKTKNGITCQKWSSTSPHRPRFSPATHPSEGLEENYCRNPDNDPQGPWCYTTDPEKRYDYCDILECEEECMHCSGENYDGKISKTMSGLECQAWDSQSPHAHGYIPSKFPNKNLKKNYCRNPDRELRPWCFTTDPNKRWELCDIPRCTTPPPSSGPTYQCLKGTGENYRGNVAVTVSGHTCQHWSAQTPHTHNRTPENFPCKNLDENYCRNPDGKRAPWCHTTNSQVRWEYCKIPSCDSSPVSTEQLAPTAPPELTPVVQDCYHGDGQSYRGTSSTTTTGKKCQSWSSMTPHRHQKTPENYPNAGLTMNYCRNPDADKGPWCFTTDPSVRWEYCNLKKCSGTEASVVAPPPVVLLPDVETPSEEDCMFGNGKGYRGKRATTVTGTPCQDWAAQEPHRHSIFTPETNPRAGLEKNYCRNPDGDVGGPWCYTTNPRKLYDYCDVPQCAAPSFDCGKPQVEPKKCPGRVVGGCVAHPHSWPWQVSLRTRFGMHFCGGTLISPEWVLTAAHCLEKSPRPSSYKVILGAHQEVNLEPHVQEIEVSRLFLEPTRKDIALLKLSSPAVITDKVIPACLPSPNYVVADRTECFITGWGETQGTFGAGLLKEAQLPVIENKVCNRYEFLNGRVQSTELCAGHLAGGTDSCQGDSGGPLVCFEKDKYILQGVTSWGLGCARPNKPGVYVRVSRFVTWIEGVMRNN
B2: QS4 (protein)
chain: MHSFCAFKADDGPCKARFERFFFNIFTRQCEQFYYGGCDGNQNRFESLEECKKMCTRD
B3: SPI51 (protein)
chain: B2 chain with D11A, K15R, R17K, E31T, Q32A, Y34F, D39G
B4: SPI11 (protein)
chain: MHSFCAFKAETGPCRARFDRWFFNIFTRQCEEFIYGGCEGNQNRFESLEECKKMCTRD
B5: SPI54 (protein)
chain: B4 chain with E10D, T11S, E31T, E32R, I34P, E39G
B6: SPI47 (protein)
chain: B4 chain with E10D, T11A, R17K, D19E, W21F
B7: SPI23 (protein)
chain: B4 chain with T11G, R17K, D19Q
B8: SPI22 (protein)
chain: B2 chain with D11G, A16G, R17K, E19P, Q32E, Y34I, D39E
B9: SPI43 (protein)
chain: B4 chain with A16G, R17K, E32S, I34H, E39K

Target: BPTI (Bos taurus)

Kd [nM]	Binder
0.3	B1

Target: B1

Kd [nM]	Binder
2	B2
~0.5	B3
0.088	B4
> 4	B5
~0.8	B6
~0.5	B7
> 2	B8
> 4	B9

Target: B1
Remark: another data set of the same source

Ki [nM]	Binder
0.088	B4
